Test results published in patent publication US20260241049A1, “Radiopharmaceutical Compositions Targeting Glypican-3 and Uses Thereof” (RayzeBio, Inc., priority 2023, published 2026).
Starred links: 1 amine or outer side, 2 acyl side, 3 side chain; linkers in the order of their positions; H or OH if unused. Positions of bridges follow the written chain, without caps; N, C: chain ends. Non-standard residues stand in square brackets, D forms with d. Residues, ends and D or L forms follow the SMILES beside them. Groups on a side chain read outwards from the residue. Primed or numbered codes have the meaning given here. *: point of attachment. DOTA‑Lu = DOTA-lutetium(175) amide on the side-chain amine, O=C([O-])CN1CCN(CC(=O)[O-])CCN(CC(=O)*)CCN(CC(=O)[O-])CC1.[175Lu+3]; MeHseMe″ = (2S)-4-methoxy-2-(methylamino)butanoic acid (N-methyl-O-methyl-L-homoserine), COCC[C@@H](C(=O)[*:2])N(C)[*:1]; Hgn = 2,6-diamino-6-oxohexanoic acid, NC(=O)CCC[C@H](N[*:1])C(=O)[*:2]; HseMe = 2-amino-4-methoxybutanoic acid, COCC[C@H](N[*:1])C(=O)[*:2]; Phe(4-(1-Me-pyrazol-4-yl)) = Cn1cc(-c2ccc(C[C@H](N)C(=O)O)cc2)cn1; NMeAla(isoquinolin-7-yl) = CN[C@@H](Cc1ccc2ccncc2c1)C(=O)O; DOTA = O=C(O)CN1CCN(CC(=O)O)CCN(CC(=O)*)CCN(CC(=O)O)CC1; PEG12 = NCCOCCOCCOCCOCCOCCOCCOCCOCCOCCOCCOCCOCCC(=O)O; 3Pal(6-Ph) = N[C@@H](Cc1ccc(-c2ccccc2)nc1)C(=O)O; Biotin = O=C1N[C@H]2[C@H](CS[C@H]2CCCCC(=O)*)N1; Phe(4-COOH) = N[C@@H](Cc1ccc(C(=O)O)cc1)C(=O)O; NMe2Nal = CN[C@@H](Cc1ccc2ccccc2c1)C(=O)O; NMeI = CC[C@H](C)[C@H](NC)C(=O)O; NMeQ = CN[C@@H](CCC(N)=O)C(=O)O; NMeL = CN[C@@H](CC(C)C)C(=O)O; NMehSer = CN[C@@H](CCO)C(=O)O; NMeK = CN[C@@H](CCCCN)C(=O)O; NMeC = CN[C@@H](CS)C(=O)O; Carboxymethyl = O=C(O)C*; NMeA = CN[C@@H](C)C(=O)O

B1: Macrocyclic peptide of Example 2-5 (SEQ ID No. 8) (peptide)
peptide: {CH2CO}-[NMeQ][NMeQ]D[NMeQ][Phe(4-COOH)]II[Phe(4-COOH)][NMe2Nal]G[Phe(4-(1-Me-pyrazol-4-yl))][NMeC]-NH2
modifications: thioether N-12
SMILES: CC[C@H](C)[C@@H]1NC(=O)[C@H](Cc2ccc(C(=O)O)cc2)NC(=O)[C@H](CCC(N)=O)N(C)C(=O)[C@H](CC(=O)O)NC(=O)[C@H](CCC(N)=O)N(C)C(=O)[C@H](CCC(N)=O)N(C)C(=O)CSC[C@@H](C(N)=O)N(C)C(=O)[C@H](Cc2ccc(-c3cnn(C)c3)cc2)NC(=O)CNC(=O)[C@H](Cc2ccc3ccccc3c2)N(C)C(=O)[C@H](Cc2ccc(C(=O)O)cc2)NC(=O)[C@H]([C@@H](C)CC)NC1=O
B2: Macrocyclic peptide of Example 2-6 (SEQ ID No. 9) (peptide)
peptide: {CH2CO}-[NMeA][NMeQ]D[NMeQ][Phe(4-COOH)]II[Phe(4-COOH)][NMe2Nal]G[Phe(4-(1-Me-pyrazol-4-yl))][NMeC]-NH2
modifications: thioether N-12
SMILES: CC[C@H](C)[C@@H]1NC(=O)[C@H](Cc2ccc(C(=O)O)cc2)NC(=O)[C@H](CCC(N)=O)N(C)C(=O)[C@H](CC(=O)O)NC(=O)[C@H](CCC(N)=O)N(C)C(=O)[C@H](C)N(C)C(=O)CSC[C@@H](C(N)=O)N(C)C(=O)[C@H](Cc2ccc(-c3cnn(C)c3)cc2)NC(=O)CNC(=O)[C@H](Cc2ccc3ccccc3c2)N(C)C(=O)[C@H](Cc2ccc(C(=O)O)cc2)NC(=O)[C@H]([C@@H](C)CC)NC1=O
B3: Macrocyclic peptide of Example 2-10 (SEQ ID No. 13) (peptide)
peptide: {CH2CO}-[NMeQ][NMeQ][Hgn][NMeQ][Phe(4-COOH)]II[Phe(4-COOH)][NMe2Nal]G[Phe(4-(1-Me-pyrazol-4-yl))][NMeC]-NH2
modifications: thioether N-12
SMILES: CC[C@H](C)[C@@H]1NC(=O)[C@H](Cc2ccc(C(=O)O)cc2)NC(=O)[C@H](CCC(N)=O)N(C)C(=O)[C@H](CCCC(N)=O)NC(=O)[C@H](CCC(N)=O)N(C)C(=O)[C@H](CCC(N)=O)N(C)C(=O)CSC[C@@H](C(N)=O)N(C)C(=O)[C@H](Cc2ccc(-c3cnn(C)c3)cc2)NC(=O)CNC(=O)[C@H](Cc2ccc3ccccc3c2)N(C)C(=O)[C@H](Cc2ccc(C(=O)O)cc2)NC(=O)[C@H]([C@@H](C)CC)NC1=O
B4: Macrocyclic peptide of Example 2-7 (SEQ ID No. 10) (peptide)
peptide: {CH2CO}-[NMeQ][NMeL]D[NMeQ][Phe(4-COOH)]II[Phe(4-COOH)][NMe2Nal]G[Phe(4-(1-Me-pyrazol-4-yl))][NMeC]-NH2
modifications: thioether N-12
SMILES: CC[C@H](C)[C@@H]1NC(=O)[C@H](Cc2ccc(C(=O)O)cc2)NC(=O)[C@H](CCC(N)=O)N(C)C(=O)[C@H](CC(=O)O)NC(=O)[C@H](CC(C)C)N(C)C(=O)[C@H](CCC(N)=O)N(C)C(=O)CSC[C@@H](C(N)=O)N(C)C(=O)[C@H](Cc2ccc(-c3cnn(C)c3)cc2)NC(=O)CNC(=O)[C@H](Cc2ccc3ccccc3c2)N(C)C(=O)[C@H](Cc2ccc(C(=O)O)cc2)NC(=O)[C@H]([C@@H](C)CC)NC1=O
B5: Macrocyclic peptide of Example 2-8 (SEQ ID No. 11) (peptide)
peptide: {CH2CO}-[NMeQ][MeHseMe″]D[NMeQ][Phe(4-COOH)]II[Phe(4-COOH)][NMe2Nal]G[Phe(4-(1-Me-pyrazol-4-yl))][NMeC]-NH2
modifications: thioether N-12
SMILES: CC[C@H](C)[C@@H]1NC(=O)[C@H](Cc2ccc(C(=O)O)cc2)NC(=O)[C@H](CCC(N)=O)N(C)C(=O)[C@H](CC(=O)O)NC(=O)[C@H](CCOC)N(C)C(=O)[C@H](CCC(N)=O)N(C)C(=O)CSC[C@@H](C(N)=O)N(C)C(=O)[C@H](Cc2ccc(-c3cnn(C)c3)cc2)NC(=O)CNC(=O)[C@H](Cc2ccc3ccccc3c2)N(C)C(=O)[C@H](Cc2ccc(C(=O)O)cc2)NC(=O)[C@H]([C@@H](C)CC)NC1=O
B6: Macrocyclic peptide of Example 2-9 (SEQ ID No. 12) (peptide)
peptide: {CH2CO}-[NMeQ][HseMe]D[NMeQ][Phe(4-COOH)]II[Phe(4-COOH)][NMe2Nal]G[Phe(4-(1-Me-pyrazol-4-yl))][NMeC]-NH2
modifications: thioether N-12
SMILES: CC[C@H](C)[C@@H]1NC(=O)[C@H](Cc2ccc(C(=O)O)cc2)NC(=O)[C@H](CCC(N)=O)N(C)C(=O)[C@H](CC(=O)O)NC(=O)[C@H](CCOC)NC(=O)[C@H](CCC(N)=O)N(C)C(=O)CSC[C@@H](C(N)=O)N(C)C(=O)[C@H](Cc2ccc(-c3cnn(C)c3)cc2)NC(=O)CNC(=O)[C@H](Cc2ccc3ccccc3c2)N(C)C(=O)[C@H](Cc2ccc(C(=O)O)cc2)NC(=O)[C@H]([C@@H](C)CC)NC1=O
B7: Lu-C-1 (peptide)
peptide: Ac-[NMeK](DOTA‑Lu)[NMeI]D[NMeQ][Phe(4-COOH)]IIY[NMeAla(isoquinolin-7-yl)]G[3Pal(6-Ph)][NMeC]-NH2
modifications: bridge N-12; not fully specified (bridges); printed as MeK(DOTA-Lu)-MeI-D-MeQ-F4COO-I-I-Y-MeNal27N-G-3Py6Ph-MeC-NH2
B8: Macrocyclic peptide of Example 2-1 (SEQ ID No. 2) (peptide)
peptide: {CH2CO}-[NMeK](Ac)[NMeI]D[NMeQ][Phe(4-COOH)]II[Phe(4-COOH)][NMe2Nal]G[3Pal(6-Ph)][NMeC]-NH2
modifications: thioether N-12
SMILES: CC[C@H](C)[C@@H]1NC(=O)[C@H](Cc2ccc(C(=O)O)cc2)NC(=O)[C@H](CCC(N)=O)N(C)C(=O)[C@H](CC(=O)O)NC(=O)[C@H]([C@@H](C)CC)N(C)C(=O)[C@H](CCCCNC(C)=O)N(C)C(=O)CSC[C@@H](C(N)=O)N(C)C(=O)[C@H](Cc2ccc(-c3ccccc3)nc2)NC(=O)CNC(=O)[C@H](Cc2ccc3ccccc3c2)N(C)C(=O)[C@H](Cc2ccc(C(=O)O)cc2)NC(=O)[C@H]([C@@H](C)CC)NC1=O
B9: Macrocyclic peptide of Example 2-2 (SEQ ID No. 3) (peptide)
peptide: {CH2CO}-[NMeK](Ac)[NMeI]D[NMeQ][Phe(4-COOH)]II[Phe(4-COOH)][NMe2Nal]G[Phe(4-(1-Me-pyrazol-4-yl))][NMeC]-NH2
modifications: thioether N-12
SMILES: CC[C@H](C)[C@@H]1NC(=O)[C@H](Cc2ccc(C(=O)O)cc2)NC(=O)[C@H](CCC(N)=O)N(C)C(=O)[C@H](CC(=O)O)NC(=O)[C@H]([C@@H](C)CC)N(C)C(=O)[C@H](CCCCNC(C)=O)N(C)C(=O)CSC[C@@H](C(N)=O)N(C)C(=O)[C@H](Cc2ccc(-c3cnn(C)c3)cc2)NC(=O)CNC(=O)[C@H](Cc2ccc3ccccc3c2)N(C)C(=O)[C@H](Cc2ccc(C(=O)O)cc2)NC(=O)[C@H]([C@@H](C)CC)NC1=O

Key:
Human Glypican3-Fc = Human Glypican3-Fc (Homo sapiens, UniProt P51654); assay: SPR binding to Glypican-3, Method B-3 (Glypican3-Fc captured on Protein A chip, 5-point dilution series); settings: SPR method B-3
Procedure: A Protein A sensor chip (Cytiva) was inserted into a Biacore T200 (Cytiva), priming was performed three times with a running buffer: HBS-P+, pH 7.4 (Cytiva), and equilibration was carried out at a flow rate of 30 μL/min. Glypican3-Fc was allowed to react for 60 seconds at a flow rate of 10 μL/min. After capturing human Glypican3-Fe, a peptide solution prepared to 10 mM in DMSO solution was diluted with a running buffer to a final concentration of 10 μM. After that, 5 serial dilution series (100 nM, 50 nM, 25 nM, 10 nM, 5 nM) of peptide solutions were prepared. Using the above samples, peptide kinetics for Glypican3 was obtained by SPR measurement. Kinetics evaluation of Glypican3 was performed by SPR measurements at a flow rate of 10 LL/min, setting the association time to 120 seconds and the disassociation time to 600 seconds.
(§1) The obtained data by Method B-1, Method B-2, Method B-3 and Method B-4 were analyzed by follow. Single Cycle Kinetics was used as the kinetics evaluation model, and curve fitting was performed using Biacore T200 Evaluation Software Version 3.0 (Cytiva).

[1] = target: T1, human Glypican3 (R&D systems, catalog number: 2119-GP) (human, UniProt P51654 25-559, limits assumed); assay: SPR (Biacore T200), Method B-1: human Glypican3 amine-coupled to CM3 chip, peptide as analyte
T1 construct: Bought recombinant protein, amine-coupled to the chip in Method B-1; also called GPC3; hGPC3
Procedure: A CM3 sensor chip (Cytiva) was inserted into a Biacore T200 (Cytiva), primed three times with a running buffer: HBS-P+, pH 7.4 (Cytiva), and equilibrated at a flow rate of 30 μL/min. Ligand immobilization was performed at a flow rate of 10 μL/min. 50 μL each of 60 mM EDC solution (Cytiva) and 650 mM NHS solution (Cytiva) were mixed, and then reacted at a flow rate of 10 μL/min for 420 seconds, 150 μL of 0.2 μM human Glypican3 (R&D systems, catalog number: 2119-GP) solution which was prepared by diluting with 10 mM acetic acid solution (pH 5.0), was reacted at a flow rate of 10 μL/min for 420 seconds, and Glypican3 was immobilized on the CM3 sensor chip. After immobilization, 1.0 M ethanolamine aqueous solution (Cytiva) was allowed to react for 420 seconds at a flow rate of 10 μL/min for capping. A peptide lysate prepared to 10 mM in DMSO solution was diluted with running buffer to a final concentration of 10 μM peptide lysate. […] Using the above samples, peptide kinetics for Glypican3 was obtained by SPR measurement. Kinetics evaluation of Glypican3 was performed by SPR measurements at a flow rate of 10 μL/min, setting the association time to 120 seconds and the disassociation time to 600 seconds.
as §1

| Molecule | Kd (Human Glypican3-Fc) | Kd [1] |
| --- | --- | --- |
| CC[C@H](C)[C@@H]1NC(=O)[C@H](Cc2ccc(C(=O)O)cc2)NC(=O)[C@H](CCC(N)=O)N(C)C(=O)[C@H](CC(=O)O)NC(=O)[C@H]([C@@H](C)CC)N(C)C(=O)[C@H](CCCCNC(=O)CCOCCOCCOCCOCCOCCOCCOCCOCCOCCOCCOCCOCCNC(=O)CCCC[C@@H]2SC[C@@H]3NC(=O)N[C@@H]32)N(C)C(=O)CSC[C@@H](C(N)=O)N(C)C(=O)[C@H](Cc2ccc(-c3ccccc3)nc2)NC(=O)CNC(=O)[C@H](Cc2ccc3ccncc3c2)N(C)C(=O)[C@H](Cc2ccc(OCC(=O)O)cc2)NC(=O)[C@H]([C@@H](C)CC)NC1=O [PLB-64] ({CH2CO}-[NMeK]([PEG12-Biotin])[NMeI]D[NMeQ][Phe(4-COOH)]IIY(Carboxymethyl)[NMeAla(isoquinolin-7-yl)]G[3Pal(6-Ph)][NMeC]-NH2; thioether N-12) | 1.04 nM | – |
| CC[C@H](C)[C@@H]1NC(=O)[C@H]([C@@H](C)OC)NC(=O)[C@H](Cc2ccc(C(=O)O)cc2)NC(=O)[C@H](CCC(N)=O)N(C)C(=O)[C@H](CC(=O)O)NC(=O)[C@H](CCOC)N(C)C(=O)[C@H](CCCCNC(=O)CN2CCN(CC(=O)O)CCN(CC(=O)O)CCN(CC(=O)O)CC2)N(C)C(=O)CSC[C@@H](C(N)=O)N(C)C(=O)[C@H](Cc2ccc(-c3ccccc3)nc2)NC(=O)CNC(=O)[C@H](Cc2ccc3ccncc3c2)N(C)C(=O)[C@H](Cc2ccc(OCC(=O)O)cc2)NC1=O [Lu-C-63] ({CH2CO}-[NMeK](DOTA)[NMehSer](Me)D[NMeQ][Phe(4-COOH)]T(Me)IY(Carboxymethyl)[NMeAla(isoquinolin-7-yl)]G[3Pal(6-Ph)][NMeC]-NH2; thioether N-12) | 1.6 nM | – |
| B1 | – | 2.6 nM |
| B2 | – | 2.7 nM |
| B3 | – | 2.2 nM |
| B4 | – | 6.8 nM |
| B5 | – | 1.3 nM |
| B6 | – | 7.2 nM |
| B7 | – | 0.29 nM |
| B8 | – | 0.5 nM |
| B9 | – | 1.5 nM |
